{
  "source": "patent US20220332804A1",
  "about": "(CSL INNOVATION, published 2022)",
  "test_in_all_cases": "SPR, KD relative to WT C2;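 note: biacore SPR at 37 °C, anti-C2 mAbs captured on anti-human IgG chips with alanine or serine point mutants of C2 as analyte, KD from 1:1 fit compared with wild-type C2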",
  "key": {"human C2 D417A": {"biological_target": "T1, human C2 D417A (human, UniProt P06681 21-752)", "T1 sequence": "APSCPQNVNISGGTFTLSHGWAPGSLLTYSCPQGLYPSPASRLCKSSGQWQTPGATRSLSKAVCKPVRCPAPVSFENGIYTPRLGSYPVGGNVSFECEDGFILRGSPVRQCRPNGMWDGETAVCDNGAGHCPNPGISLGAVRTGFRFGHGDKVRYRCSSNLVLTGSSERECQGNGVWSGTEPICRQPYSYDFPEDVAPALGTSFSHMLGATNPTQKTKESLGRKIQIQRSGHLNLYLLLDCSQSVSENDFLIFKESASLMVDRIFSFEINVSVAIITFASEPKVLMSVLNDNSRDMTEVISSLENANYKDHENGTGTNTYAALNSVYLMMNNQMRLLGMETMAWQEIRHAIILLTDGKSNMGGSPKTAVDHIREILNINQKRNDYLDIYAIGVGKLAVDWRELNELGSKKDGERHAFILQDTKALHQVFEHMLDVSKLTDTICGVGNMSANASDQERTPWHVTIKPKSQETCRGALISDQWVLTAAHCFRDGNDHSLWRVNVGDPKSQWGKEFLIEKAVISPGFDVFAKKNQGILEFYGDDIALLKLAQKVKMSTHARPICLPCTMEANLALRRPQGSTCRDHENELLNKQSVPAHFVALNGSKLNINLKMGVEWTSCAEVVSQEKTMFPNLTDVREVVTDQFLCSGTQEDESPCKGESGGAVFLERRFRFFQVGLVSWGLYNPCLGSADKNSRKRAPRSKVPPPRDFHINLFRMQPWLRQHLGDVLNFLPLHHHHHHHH", "description": "(§1) Surface plasmon resonance (SPR, Biacore) was used for all binding affinity analyses. In brief, goat anti-human IgG was directly immobilised onto the carboxymethyl dextran surface of CM5 sensorchips to approximately 12,000 RU using standard NHS/EDC chemistry at pH 5. The immobilised antibody surface was pre-conditioned with ten injections of polyclonal human IgG (Privigen 60 s) prepared at 1 μg/mL. Ligands (anti-C2 mAbs) were captured at the beginning of each cycle as described below. An adjacent spot or flow cell in which only Polyclonal IgG was capture was used as a reference surface. The goat anti-human IgG Fc antibody surface was regenerate in 100 mM H3PO4, injected for 45 seconds at the end of each cycle. Experiments were performed at 37° C. and the flow rate of each experiment was kept constant at 30 μL/min.\n(§2) Sensogram data was double-referenced against a reference anti-IgG surface (i.e. minus anti-C2 mAb) and blank buffer injections obtained within each experiment. The binding data was fit to 1:1 (kinetic or steady-state) model using local Rmax and null refraction index (RI=0) when appropriate. Buffers and solutions were filtered (0.22 μm) prior to use."}, "human C2 D419A": {"biological_target": "T2, human C2 D419A (human, UniProt P06681 21-752)", "T2 sequence": "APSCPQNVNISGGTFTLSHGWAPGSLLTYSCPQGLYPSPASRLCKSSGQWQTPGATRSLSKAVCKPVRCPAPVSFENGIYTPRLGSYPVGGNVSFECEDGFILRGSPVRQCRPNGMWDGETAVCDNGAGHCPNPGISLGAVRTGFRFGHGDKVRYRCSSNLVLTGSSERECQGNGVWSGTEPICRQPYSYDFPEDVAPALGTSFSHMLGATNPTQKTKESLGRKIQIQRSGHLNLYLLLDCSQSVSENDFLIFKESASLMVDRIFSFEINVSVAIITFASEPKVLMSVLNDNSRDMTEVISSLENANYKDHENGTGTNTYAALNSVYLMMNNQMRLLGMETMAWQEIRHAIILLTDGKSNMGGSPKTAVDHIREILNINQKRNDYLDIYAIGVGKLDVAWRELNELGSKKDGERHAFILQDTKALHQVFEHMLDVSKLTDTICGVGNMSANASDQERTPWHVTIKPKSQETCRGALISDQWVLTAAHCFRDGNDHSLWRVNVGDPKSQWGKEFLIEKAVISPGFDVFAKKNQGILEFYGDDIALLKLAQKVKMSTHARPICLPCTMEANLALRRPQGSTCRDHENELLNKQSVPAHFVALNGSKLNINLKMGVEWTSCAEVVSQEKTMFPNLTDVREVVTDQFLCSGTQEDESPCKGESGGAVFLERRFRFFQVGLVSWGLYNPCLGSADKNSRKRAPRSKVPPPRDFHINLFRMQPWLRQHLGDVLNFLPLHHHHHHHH", "description": "as §1, §2"}, "human C2 G427A": {"biological_target": "T3, human C2 G427A (human, UniProt P06681 21-752)", "T3 sequence": "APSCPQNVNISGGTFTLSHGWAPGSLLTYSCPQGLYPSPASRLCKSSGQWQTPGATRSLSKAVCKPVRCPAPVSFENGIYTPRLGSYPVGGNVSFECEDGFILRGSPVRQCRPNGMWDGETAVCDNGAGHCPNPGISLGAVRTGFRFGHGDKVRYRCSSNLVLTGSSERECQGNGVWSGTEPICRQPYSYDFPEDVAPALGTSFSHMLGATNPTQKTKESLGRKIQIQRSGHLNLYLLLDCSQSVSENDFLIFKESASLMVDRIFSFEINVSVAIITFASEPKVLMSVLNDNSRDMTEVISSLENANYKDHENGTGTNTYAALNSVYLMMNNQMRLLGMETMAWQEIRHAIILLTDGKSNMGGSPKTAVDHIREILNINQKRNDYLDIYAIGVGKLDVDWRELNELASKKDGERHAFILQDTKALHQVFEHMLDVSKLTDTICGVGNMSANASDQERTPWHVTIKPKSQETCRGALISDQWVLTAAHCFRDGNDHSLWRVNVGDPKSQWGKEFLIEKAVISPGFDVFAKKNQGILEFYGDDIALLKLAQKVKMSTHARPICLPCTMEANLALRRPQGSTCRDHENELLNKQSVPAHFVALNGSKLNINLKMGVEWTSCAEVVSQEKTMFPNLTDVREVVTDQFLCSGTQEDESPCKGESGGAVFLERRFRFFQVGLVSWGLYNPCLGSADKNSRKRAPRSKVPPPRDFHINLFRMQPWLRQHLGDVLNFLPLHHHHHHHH", "description": "as §1, §2"}, "human C2 D431A": {"biological_target": "T4, human C2 D431A (human, UniProt P06681 21-752)", "T4 sequence": "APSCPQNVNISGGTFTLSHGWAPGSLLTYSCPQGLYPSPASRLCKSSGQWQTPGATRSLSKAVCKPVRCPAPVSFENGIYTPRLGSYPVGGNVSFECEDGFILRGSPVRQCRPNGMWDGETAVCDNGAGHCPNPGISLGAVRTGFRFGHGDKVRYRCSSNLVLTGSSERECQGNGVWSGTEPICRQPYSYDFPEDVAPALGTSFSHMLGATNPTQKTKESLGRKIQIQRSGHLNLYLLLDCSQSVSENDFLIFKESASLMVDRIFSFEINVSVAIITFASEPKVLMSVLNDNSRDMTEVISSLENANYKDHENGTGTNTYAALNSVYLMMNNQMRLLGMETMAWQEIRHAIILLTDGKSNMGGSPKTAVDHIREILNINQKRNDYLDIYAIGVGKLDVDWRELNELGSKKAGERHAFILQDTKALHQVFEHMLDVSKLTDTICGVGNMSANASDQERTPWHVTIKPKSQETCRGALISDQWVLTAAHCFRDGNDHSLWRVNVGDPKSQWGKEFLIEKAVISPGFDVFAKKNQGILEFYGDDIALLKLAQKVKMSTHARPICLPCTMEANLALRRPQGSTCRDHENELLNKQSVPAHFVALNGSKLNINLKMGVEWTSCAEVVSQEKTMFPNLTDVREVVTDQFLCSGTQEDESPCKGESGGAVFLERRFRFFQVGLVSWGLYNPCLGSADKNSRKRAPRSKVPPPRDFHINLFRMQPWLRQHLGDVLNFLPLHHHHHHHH", "description": "as §1, §2"}},
  "data": [
    {"binder": "RF16-242 (antibody, human IgG4 S228P, lambda, V domains shown, pH-dependent anti-C2 antibody from a phage display library) VH: EVQLLQSGAEVKKPGESLKISCKGSGYSFTSYWIGWVRQMPGKGLEWMGIIYPGDSDTRYSPSFQGQVTISADKSISTAYLQWSSLKASDTAMYYCARRGHYGDYFDYWGQGTLVTVSS VL: SYELTQPPSVSVSPGQTARITCSGDALPKKYAYWYHQKSGQAPVLVIYEDRRRPSEIPERFSGSSSGTMATLTITGAQVEDEGVYFCYSRDRAGNQRVFGGGTQLTVLG", "values": [
      {"measurement": "Fold diff", "setting": "human C2 D417A", "value": 3, "unit": "fold"},
      {"measurement": "Fold diff", "setting": "human C2 D419A", "value": 2, "unit": "fold"},
      {"measurement": "Fold diff", "setting": "human C2 G427A", "value": 1, "unit": "fold"},
      {"measurement": "Fold diff", "setting": "human C2 D431A", "value": 3, "unit": "fold"}
    ]}
  ]
}
